Measurements as given in the supplement of paper PMC12338614.
± gives the uncertainty stated by the source.

B1: library; numbered along this chain (parent)
chain: MEVVDPQQLGMFTEGELMSVGMDTFIHRIDSTEVIYQPRRKRAKLIGKYLMGDLLGEGSYGKVKEVLDSETLCRRAVKILKKKKLRRIPNGEANVKKEIQLLRRLRHKNVIQLVDVLYNEEKQKMYMVMEYCVCGMQEMLDSVPEKRFPVCQAHGYFCQLIDGLEYLHSQGIVHKDIKPGNLLLTTGGTLKISDLGVAEALHPFAADDTCRTSQGSPAFQPPEIANGLDTFSGFKVDIWSAGVTLYNITTGLYPFEGDNIYKLFENIGKGSYAIPGDCGPPLSDLLKGMLEYEPAKRFSIRQIRQHSWFRKKHPPAEAPVPIPPSPDTKDRWRSMTVVPYLEDLHGADEDEDLFDIEDDIIYTQDFTVPGQVPEEEASHNGQRRGLPKAVCMNGTEAAQLSTKSRAEGRAPNPARKACSASSKIRRLSACKQQ

Variants of: B1
Experiment: STK11 functional score (HeLa growth suppression), rescaled enrichment; synonymous median = 1, nonsense median = 0 (normalised score)
Settings: with HeLa; variant type: missense
How it was run: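 HeLa cells carrying an AAVS1 landing pad received codon-optimised STK11 libraries made by codon randomisation (POPCode), integrated by Bxb1, with three regions each transfected three times. Integrants that were BFP-negative and mCherry-positive were sorted by FACS 4–5 days after electroporation and then grown for about two weeks. Tiled amplicons from gDNA were sequenced on NextSeq at ~2 million reads per tile. The functional score is a wild-type-corrected log ratio of post- to pre-selection counts, rescaled to the synonymous and nonsense medians, merged across codons and replicate transfections, and given a bootstrapped error.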

Variant | STK11 functional score
MEVVDPQQLGMFTEGELMSVGMDTFIHRIDSTEVIYQPRRKRAKLIGKYLMGDLLGEGSYGKVKEVLDSETLCRRAVKILKKKKLRRIPNGEANVKKEIQLLRRLRHKNVIQLVDVLYNEEKQKMYMVMEYCVCGMQEMLDSVPEKRFPVCQAHGYFCQLIDGLEYLHSQGIVHKDIKPGNLLLTTGGTLKISDLGVAEALHPFAADDTCRTSQGSPAFQPPEIANGLDTFSGFKVDIWSAGVTLYNITTGLYPFEGDNIYKLFENIGKGSYAIPGDCGPPLSDLLKGMLEYEPAKRFSIRQIRQHSWFRKKHPPAEAPVPIPPSPDTKDRWRSMTVVPYLEDLHGADEDEDLFDIEDDIIYTQDFTVPGQVPEEEASHNGQRRGLPKAVCMNGTEAAQLSTKSRAEGRAPNPARSACSASSKIRRLSACKQQ [K416S] | 1.55 ± 0.2
MEVVDPQQLGMFTEGELMSVGMDTFIHRIDSTEVIYQPRRKRAKLIGKYLMGDLLGEGSYGKVKEVLDSETLCRRAVKILKKKKLRRIPNGEANVKKEIQLLRRLRHKNVIQLVDVLYNEEKQKMYMVMEYCVCGMQEMLDSVPEKRFPVCQAHGYFCQLIDGLEYLHSQGIVHKDIKPGNLLLTTGGTLKISDLGVAEALHPFAADDTCRTSQGSPAFQPPEIANGLDTFSGFKVDIWSAGVTLYNITTGLYPFEGDNIYKLFENIGKGSYAIPGDCGPPLSDLLKGMLEYEPAKRFSIRQIRQHSWFRKKNPPAEAPVPIPPSPDTKDRWRSMTVVPYLEDLHGADEDEDLFDIEDDIIYTQDFTVPGQVPEEEASHNGQRRGLPKAVCMNGTEAAQLSTKSRAEGRAPNPARKACSASSKIRRLSACKQQ [H313N] | 0.48 ± 0.26
MEVVDPQQLGMFTEGELMSVGMDTFIHRIDSTEVIYQPRRKRAKLIGKYLMGDLLGEGSYGKVKEVLDSETLCRRAVKILKKKKLRRIPNGEANVKKEIQLLRRLRHKNVIQLVDVLYNEEKQKMYMVMEYCVCGMQEMLDSVPEKRFPVCQAHGYFCQLIDGLEYLHSQGIVHKDIKPGNLLLTTGGTLKISDLGVAEALHPFAADDTCRTSQGSPAFQPPEIANGLDTFSGFKVDIWSAGVTLYNITTGLYPFEGDNIYKLFENPGKGSYAIPGDCGPPLSDLLKGMLEYEPAKRFSIRQIRQHSWFRKKHPPAEAPVPIPPSPDTKDRWRSMTVVPYLEDLHGADEDEDLFDIEDDIIYTQDFTVPGQVPEEEASHNGQRRGLPKAVCMNGTEAAQLSTKSRAEGRAPNPARKACSASSKIRRLSACKQQ [I267P] | 0.26 ± 0.21
MEVVDPQQLGMFTEGELMSVGMDTFIHRIDSTEVIYQPRRKRAKLIGKYLMGDLLGEGSYGKVKEVLDSETLCRRAVKILKKKKLRRIPNGEANVKKEIQLLRRLRHKNVIQLVDVLYNEEKQKMYMVMEYCVCGMQEMLDSVPEKRFPVCQAHGYFCQLIDGLEYLHSQGIVHKDIKPGNLLLTTGGTLKISDLGVAEALHPFAADDTCRTSQGSPAFQPPEIANGLDTFSGFKVDIWSAGVTLYNITTGLYPFEGDNIYKLFENIGKGSYAIPGDCGPPLSDLLKGMLEYEPAKRFSIRQIRQHSWFRKKHPPAEAPVPIPPSPDTKDRWRSMTVVPYLEDLHGADEDEDLFDIEDDIIYTQDFTVWGQVPEEEASHNGQRRGLPKAVCMNGTEAAQLSTKSRAEGRAPNPARKACSASSKIRRLSACKQQ [P369W] | 1.49 ± 0.22
MEVVDPQQLGMFTEGELMSVGMDTFIHRIDSTEVIYQPRRKRAKLIGKYLMGDLLGEGSYGKVKEVLDSETLCRRAVKILKKKKLRRIPNGEANVKKEIQLLRRLRHKNVIQLVDVLYNEEKQKMYMVMEYCVCGMQEMLDSVPEKRFPVCQAHGYFCQLIDGLEYLHSQGIVHKDIKPGNLLLTTGGTLKISDLGVAEALHPFAADDTCRTSQGSPAFQPPEIANGLDTFSGFKVDIWSAGVVLYNITTGLYPFEGDNIYKLFENIGKGSYAIPGDCGPPLSDLLKGMLEYEPAKRFSIRQIRQHSWFRKKHPPAEAPVPIPPSPDTKDRWRSMTVVPYLEDLHGADEDEDLFDIEDDIIYTQDFTVPGQVPEEEASHNGQRRGLPKAVCMNGTEAAQLSTKSRAEGRAPNPARKACSASSKIRRLSACKQQ [T244V] | 1.15 ± 0.45
MEVVDPQQLGMFTEGELMSVGMDTFIHRIDSTEVIYQPRRKRAKLIGKYLMGDLLGEGSYGKVKEVLDSETLCRRAVKILKKKKLRRIPNGEANVKKEIQLLRRLRHKNVIQLVDVLYNEEKQKMYMVMEYCVCGMQEMLDSVPEKRFPVCQAHGYFCQLIDGLEYLHSQGIVHKDIKPGNLLLTTGGTLKISDTGVAEALHPFAADDTCRTSQGSPAFQPPEIANGLDTFSGFKVDIWSAGVTLYNITTGLYPFEGDNIYKLFENIGKGSYAIPGDCGPPLSDLLKGMLEYEPAKRFSIRQIRQHSWFRKKHPPAEAPVPIPPSPDTKDRWRSMTVVPYLEDLHGADEDEDLFDIEDDIIYTQDFTVPGQVPEEEASHNGQRRGLPKAVCMNGTEAAQLSTKSRAEGRAPNPARKACSASSKIRRLSACKQQ [L195T] | 1.67 ± 0.15
MEVVDPQQLGMFTEGELMSVGMDTFIHRIDSTEVIYQPRRKRAKLIGKYLMGDLLGEGSYGKVKEVLDSETLCRRAVKILKKKKLRRIPNGEANVKKEIQLLRRLRHKNVIQLVDVLYNEEKQKMYMVMEYCVCGMQEMPDSVPEKRFPVCQAHGYFCQLIDGLEYLHSQGIVHKDIKPGNLLLTTGGTLKISDLGVAEALHPFAADDTCRTSQGSPAFQPPEIANGLDTFSGFKVDIWSAGVTLYNITTGLYPFEGDNIYKLFENIGKGSYAIPGDCGPPLSDLLKGMLEYEPAKRFSIRQIRQHSWFRKKHPPAEAPVPIPPSPDTKDRWRSMTVVPYLEDLHGADEDEDLFDIEDDIIYTQDFTVPGQVPEEEASHNGQRRGLPKAVCMNGTEAAQLSTKSRAEGRAPNPARKACSASSKIRRLSACKQQ [L140P] | -0.0157 ± 0.083
